Laboratory results from patent publication US20240084005A1 (ALLAKOS, published 2024).

Key:
[1] = biological target: T1, Siglec-6 (antigen of Example 8) (human, UniProt O43699 27-347, limits assumed); test: Siglec-6 binding ELISA after 2 weeks of forced degradation (elevated temperature, low pH)
Protocol: AK20 and AK21 were further evaluated in a forced degradation stability study. AK20 and AK21 (both using a wild-type human IgG1 Fc region with normal fucosylation) were incubated for 2 weeks at elevated temperatures and low pH followed by assessment of activity using a Siglec-6 binding ELISA.

[2] = biological target: T1, Siglec-6 (antigen of Example 8); test: Siglec-6 binding ELISA after 1 week of forced degradation (elevated temperature, low pH); 1 week of forced degradation (elevated temperatures and low pH)
[3] = biological target: T1, Siglec-6 (antigen of Example 8); test: Siglec-6 binding ELISA after 1 week of forced degradation (elevated temperature, low pH)

T1 sequence (O43699 27-347 limits assumed): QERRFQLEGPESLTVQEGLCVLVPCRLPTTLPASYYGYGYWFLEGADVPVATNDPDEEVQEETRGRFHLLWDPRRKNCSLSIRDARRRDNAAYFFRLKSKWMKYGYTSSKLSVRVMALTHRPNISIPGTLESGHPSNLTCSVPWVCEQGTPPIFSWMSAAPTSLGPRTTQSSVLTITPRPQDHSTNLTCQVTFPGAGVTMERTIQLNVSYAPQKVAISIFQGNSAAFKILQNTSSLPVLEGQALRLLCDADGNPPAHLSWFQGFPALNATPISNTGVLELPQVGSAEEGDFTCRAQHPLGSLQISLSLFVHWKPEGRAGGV

| EC50 [1] [ng/mL] | EC50 [2] [ng/mL] | EC50 [3] [ng/mL] | Binder |
| --- | --- | --- | --- |
| 6.4 | 6.5 |  | AK20 (wild-type human IgG1 Fc) (antibody, V domains shown, Tested after forced degradation) VH: QVQLQESGPGLVKPSETLSLTCTVSGFSLTSYGVSWIRQPPGKGLEWIGVIWHDGSTSYHPSLKSRVTISRDTSKNQVSLKLSSVTAADTAVYYCASDGYSGTFAYWGQGTLVTVSS VL: QIVVTQSPATLSLSPGERATLSCTASSSVSSSYLHWYQQKPGQAPRLLIYSTSILASGIPARFSGSGSGTDFTLTISSLQPEDFAVYYCHQYHRSPYTFGQGTKLEIK |
| 9.3 |  | 9.1 | AK21 (wild-type human IgG1 Fc) (antibody, V domains shown, Tested after forced degradation) VH: QVQLQESGPGLVKPSETLSLTCTVSGFSLSSYGVSWIRQPPGKGLEWIGVIWHDGSTNYNPSLKSRVTISRDTSKNQVSLKLSSVTAADTAVYYCASDGYSGTFAYWGQGTLVTVSS VL: QIVVTQSPATLSLSPGERATLSCTASSSVSSSYLHWYQQKPGQAPRLLIYSTSILASGIPARFSGSGSGTDFTLTISSLQPEDFAVYYCHQYHRSPYTFGQGTKLEIK |
